How the values were obtained:
sortilin = biological target: T1, sortilin (Homo sapiens, UniProt Q99523); assay: GSTpro internalization: acid wash (PBS, pH 2.0) before fixation; type: cell-based; conditions: PBS pH 2.0 immediately before fixation
T1 construct: They were transfected with plasmids either encoding wild type sortilin, or sortilin with a mutation that renders it endocytosis deficient; expressed in transfected cells; host or cells: HEK 293 cells, transient transfection (lipofectamine)
T1 sequence (Q99523 78-831): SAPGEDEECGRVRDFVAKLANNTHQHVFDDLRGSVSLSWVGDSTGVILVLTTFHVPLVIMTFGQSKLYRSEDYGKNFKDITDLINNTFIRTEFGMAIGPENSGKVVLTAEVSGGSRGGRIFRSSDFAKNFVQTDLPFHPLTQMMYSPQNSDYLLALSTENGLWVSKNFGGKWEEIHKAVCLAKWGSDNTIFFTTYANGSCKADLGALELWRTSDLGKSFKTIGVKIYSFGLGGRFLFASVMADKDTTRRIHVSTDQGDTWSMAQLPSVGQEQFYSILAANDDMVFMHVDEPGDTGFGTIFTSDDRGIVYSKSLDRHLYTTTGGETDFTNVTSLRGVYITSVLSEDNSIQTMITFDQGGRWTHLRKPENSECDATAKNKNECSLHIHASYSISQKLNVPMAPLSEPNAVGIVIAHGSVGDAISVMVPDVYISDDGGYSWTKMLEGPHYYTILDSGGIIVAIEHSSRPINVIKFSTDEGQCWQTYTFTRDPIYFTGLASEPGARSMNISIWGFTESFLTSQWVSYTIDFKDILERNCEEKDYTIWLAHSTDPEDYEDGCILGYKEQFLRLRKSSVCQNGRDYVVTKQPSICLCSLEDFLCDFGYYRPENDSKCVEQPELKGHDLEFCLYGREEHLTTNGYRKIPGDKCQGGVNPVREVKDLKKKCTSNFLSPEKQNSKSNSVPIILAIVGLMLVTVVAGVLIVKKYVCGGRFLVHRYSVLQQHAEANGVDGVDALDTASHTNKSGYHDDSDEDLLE
From the text: To further examine whether GSTpro was internalized, rather than only binding to the cell exterior, extracellularly bound ligand was removed by washing cells in PBS acidified to pH 2.0 with HCl supplemented with 0.03 M sucrose and 10% FCS immediately before fixation.
It was not clear whether the detected ligand signal was only due to GSTpro binding to sortilin, or whether sortilin would be subsequently internalized. To determine if GSTpro was endocytosed after sortilin binding, we performed immunocytochemical staining with and without detergent (Fig. 6a, b, respectively). […] However, alternative interpretations are also possible (see discussion). […] We investigated if GSTpro was bound to the cell surface by using an acid wash to remove surface bound GSTpro. Cells were washed in PBS, pH 2.0 immediately before fixation, to remove extracellular ligand bound to receptors.

[1] = system: empty vector control-transfected cells; assay: GSTpro signal in empty vector control-transfected HEK293 cells; type: cell-based, human; conditions: Fig. 3a, c, d
Method: HEK 293 cells were grown in DMEM with 10% fetal bovine serum. They were transfected with plasmids either encoding wild type sortilin, or sortilin with a mutation that renders it endocytosis deficient, or an empty control vector according to manufacturer’s instructions using 20 µg lipofectamine (Thermo Fischer Scientific) with 8 µg DNA on […] per 6 cm, poly-lysine coated dish. The cells were initially plated into 24-well dishes after transfection. That intermediate step rendered more uniform cell numbers in the 96-well dishes that were used to run the actual assay. 24 h later, cells were split into black opaque-walled, clear-bottom 96 well dishes at 42000 cells in 80 µl medium/well. […]
The fixed cells were washed with PBS for 15 min, followed by two 15 min washes with PBS with 0.1% Triton X-100. […] Wells to be evaluated for blocking of the sortilin-GSTpro interaction by antibodies were only stained with an antibody against the pro domain of proNGF in 10% FBS at a dilution of 1:1500 (Millipore (N-term) clone EPI318Y, Rabbit Monoclonal Antibody Catalog Number: #04-1142). […]
The following day, wells were washed 3 × 15 min with PBS/0.1% Triton X-100. […] Cellular fluorescence was quantified using an array scanner and the “Neuronal Profiler” Bioapplication (Thermo Fisher Scientific) as described below. […]

B1: GSTpro: fusion of Glutathione S-transferase (GST) merged at the C-terminal of GST to the pro part (19–121) of human proNGF (protein)
chain: EPHSESNVPAGHTIPQAHWTKLQHSLDTALRRARSAPAAAIAARVAGQTRNITVDPRLFKKRRLRSPRVLFSTQPPREAADTQDLDFEVGGAAPFNRTHRSKR
modifications: left off: GST, N-terminal, kept
notes: fusion of Glutathione S-transferase (GST) merged at the C-terminal of GST to the pro part (19–121) of human proNGF
- fraction of GSTpro signal removed by acid wash (in words) (sortilin): only removes a small fraction of the GSTpro signal
- reduction of GSTpro signal by acid wash (sortilin; data not shown): 20%
- GSTpro binding signal in empty vector cells (in words) [1]: only very low signal

From publication PMC5882628, “Development of a Cell-Based Assay to Assess Binding of the proNGF Prodomain to Sortilin” (Cellular and Molecular Neurobiology, 2017)
